Reference: paper PMC4620603

Biological target: pyrene-labeled tropomyosin from bovine cardiac tissue (bovine) (UniProt Q5KR49)
Test: other fluorescence titration; troponin complex binding to 100 nM pyrene-tropomyosin, 23 °C, 20 mM Hepes pH 7.5, 100 mM KCl, 2 mM MgCl2, 1 mM DTT

Kd	Substance
48 nM	human adult cardiac troponin complex with R205Q troponin T (from UniProt P45379-6 1-288; P19429 1-210; P02585 1-160)
68 nM	human adult cardiac troponin complex, wild type (troponin T, troponin I, troponin C) (from UniProt P45379-6 1-288; P19429 1-210; P02585 1-160)
